Results from patent US8017152B2, “Cores and microcapsules suitable for parenteral administration as well as process for their manufacture” (Stratosphere Pharma AB, priority 2005, dated 2011).

Test: Protein integrity of encapsulated hGH by size exclusion HPLC (SEC-HPLC): dimer, polymer and aggregate forms
Type: physicochemical
Conditions: before encapsulation
Description: Three batches of maltodextrin microspheres were prepared (50% W/W, 1 ml, 1 ml and 1.8 ml, respectively, in sodium acetate, 10 mM, pH 6.4, 2 mM zinc acetate) in which the GH was suspended manually. The compositions were transferred to Miglyol 829 (10, 20 and 30 ml, respectively), W/O emulsions were created by homogenization (Turrax) and left under refrigeration over night (about 16 hours), then centrifuged (Sorvall SS34, 7000 rpm, 10 min) and washed three times with cold acetone (about 30 g, centrifugation 5 min), allowed to air dry and sieved. The batches were sieved and then pooled. […] The protein quality was determined after centrifugation using HPLC size exlusion chromatography (SEC-HPLC, TSK2000 SWxl, Tosoh Corporation) according to Reslow et al. (supra). […] The fractions were pooled to provide about 0.57 g of cores.
The core loading was about 75% on the pooled batches. Protein integrity was determined after suspending the cores in a buffer (50 mM HEPES, 10 mM EDTA, pH 7.3). After gentle mixing for about one hour the cores had dissolved.
Free flowing single core microcapsules were obtained as evaluated by light microscopy. Protein integrity was determined essentially according to Reslow et al. (supra), including removal of the PLGA coating with a mixture of methylene chloride and acetone.

Human growth hormone [hGH]
dimer content of hGH starting material / before immobilisation: approximately 2.4% | dimer content of hGH starting material / before immobilisation (listed as GH): about 2.4%
